From paper PMC12316734, “Lipase Activation by Poly(Methyl Methacrylate) in Dispersed Solution: Mechanistic Insights by Fluorescence Spectroscopy” (Applied Biochemistry and Biotechnology, 2025)

Key:
Assay in all cases: fluorogenic hydrolysis assay, Michaelis-Menten fit
Conditions in all cases: pH 7, 20 °C, no PMMA, 2% DMSO, 500 nM enzyme
[1] = substrate: CCCC(=O)Oc1ccc2c(C)cc(=O)oc2c1; type: biochemical, Moesziomyces antarcticus
Description: fluorogenic hydrolysis assay, Michaelis-Menten fit on Candida antarctica lipase B (CalB)

[2] = substrate: CCCC(=O)Oc1ccc2c(C)cc(=O)oc2c1; type: biochemical, Bacillus subtilis
Description: fluorogenic hydrolysis assay, Michaelis-Menten fit on Bacillus subtilis lipase A (BSLA WT)

[3] = substrate: CCCC(=O)Oc1ccc2c(C)cc(=O)oc2c1; type: biochemical, Thermomyces lanuginosus
Description: fluorogenic hydrolysis assay, Michaelis-Menten fit on Thermomyces lanuginosus lipase (TLL)

B1: Candida antarctica lipase B (CalB) (Moesziomyces antarcticus) (protein)
chain: LPSGSDPAFSQPKSVLDAGLTCQGASPSSVSKPILLVPGTGTTGPQSFDSNWIPLSTQLGYTPCWISPPPFMLNDTQVNTEYMVNAITALYAGSGNNKLPVLTWSQGGLVAQWGLTFFPSIRSKVDRLMAFAPDYKGTVLAGPLDALAVSAPSVWQQTTGSALTTALRNAGGLTQIVPTTNLYSATDEIVQPQVSNSPLDSSYLFNGKNVQAQAVCGPLFVIDHAGSLTSQFSYVVGRSALRSTTGQARSADYGITDCNPLPANDLTPEQKVAAAALLAPAAAAIVAGPKQNCEPDLMPYARPFAVGKRTCSGIVTP
notes: commercial lipase B (Strem Chemicals), free enzyme in solution
Km [1]: 26.6 ± 1.77 µM
Vmax [1]: 5.43 µM/min
Vmax/Km [1]: 0.2 min⁻¹

B2: Bacillus subtilis lipase A (BSLA WT) (Bacillus subtilis subsp. subtilis str. 168) (protein)
chain: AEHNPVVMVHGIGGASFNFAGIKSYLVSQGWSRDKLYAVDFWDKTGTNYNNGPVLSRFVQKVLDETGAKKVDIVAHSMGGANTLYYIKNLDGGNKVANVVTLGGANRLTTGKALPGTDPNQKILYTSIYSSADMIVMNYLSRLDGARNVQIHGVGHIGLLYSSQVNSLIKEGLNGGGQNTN
Km [2]: 39.2 ± 3.61 µM
Vmax [2]: 97.7 µM/min
Vmax/Km [2]: 2.49 min⁻¹

B3: Thermomyces lanuginosus lipase (TLL) (Thermomyces lanuginosus) (protein)
chain: EVSQDLFNQFNLFAQYSAAAYCGKNNDAPAGTNITCTGNACPEVEKADATFLYSFEDSGVGDVTGFLALDNTNKLIVLSFRGSRSIENWIGNLNFDLKEINDICSGCRGHDGFTSSWRSVADTLRQKVEDAVREHPDYRVVFTGHSLGGALATVAGADLRGNGYDIDVFSYGAPRVGNRAFAEFLTVQTGGTLYRITHTNDIVPRLPPREFGYSHSSPEYWIKSGTLVPVTRNDIVKIEGIDATGGNNQPNIPDIPAHLWYFGLIGTCL
notes: commercial lipase (gift of ASA Spezialenzyme), desalted; predominantly dimer in FCS
Km [3]: 20.8 ± 1.67 µM
Vmax [3]: 4.16 µM/min
Vmax/Km [3]: 0.2 min⁻¹
